# Source: the supplement of paper PMC9732359
# ± gives the uncertainty stated by the source.
# Assay: protein stability index of a GFP-peptide fusion (yeast GPS) (PSI 1-4); higher = more stable; sorted into four equal gates, so the index is relative within each strain
# Settings: pdr5∆
# Summary of the method: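 Peptides tiling yeast proteins in 17-residue segments were fused downstream of GFP, with Cherry expressed from the same plasmid. As a pooled library in yeast, mid-log cultures grown in leucine-free medium were sorted into four equal gates by GFP/Cherry fluorescence ratio. Gate plasmids were PCR-amplified and Illumina-sequenced, and barcodes linked reads to strains. Each peptide received a protein stability index equal to the sum of each gate's read frequency times its gate number.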
row,Sequence,protein stability index
1,GKLFSDIKVLKRQLIKE [YIL149C/MLP2],2.56 ± 0.08

# Same assay, conditions: san1∆
row,Sequence,protein stability index
1,FKKDLVIVLSNISHLLE [SWI1],1.75 ± 0.078
2,FKKLTKDIFRYMQRTVE [RPB2],1.25 ± 0.087
3,FKLGKFNYVAVGDVSNL [QCR2],2.38 ± 0.14
4,FKNDFNSFYYTSLLYLS [RPN9],2.19 ± 0.11
5,FKQAKERVMKNKVEENL [RPT2],3 ± 0.14
6,FKVRTNLNDKFGIYILT [MED1],1.98 ± 0.098
7,FKYVSVRYEEKRELKQL [BRR2],2.93 ± 0.067
8,FLIDVLKIYAQIEKKEI [YCG1],1.21 ± 0.11
9,FLLEKAGERKIPHDLNF [TAF14],2.61 ± 0.051
10,FLNSNAVVVGTGNIKHE [COR1],1.06 ± 0.22
11,FLQSQRQQQQRSILQSL [SWI1],1.41 ± 0.087
12,FLTNELIRLQMEKLDAK [SWI3],3.14 ± 0.051
13,FMEAQGAGIQIIMQADL [FAS2],2.08 ± 0.24
14,FMKKLRAAKLAAPENEK [RPS15],2.48 ± 0.11
15,FMTKLLEVANDLQLLYV [IRR1],2.23 ± 0.12
16,FNAGSNPPSYQSSEDVI [RPB7],2.72 ± 0.27
17,FNEKFPSLIQEEEEDTT [NUT1],3.06 ± 0.074
18,FNFFEPIKEAKIKHGSV [YMR129W/POM152],2.54 ± 0.065
19,FNKNLGKGPGCGFWQPA [PRP8],3.39 ± 0.14
20,FNNEKETEKFALERNWP [RPN12],2.76 ± 0.041
21,FNSVVNLSRYPKSGIDI [MTR3],2.82 ± 0.079
22,FNVPVVSKQLGNGLVDE [YAR002W/NUP60],3.26 ± 0.14
23,FPNIAIRPTELRLPFSA [PRP8],1.93 ± 0.09

row,Sequence,protein stability index
1,FPQGLNIVMDSKQNGIE [SSN8],3.26 ± 0.078
2,FPRSRSRSRSSIRSISP [ESC2],3.03 ± 0.09
3,FQALDSEETQFKYVEDR [ITC1],3.06 ± 0.069
4,FRALGIIPDGEILEHIC [RPB2],2.46 ± 0.089
5,FRISLGLPVGAIMNCAD [RPL23A],1.57 ± 0.057
6,FSEEKAEEFDFNVPVVS [YAR002W/NUP60],1.3 ± 0.13
7,FSKGDADVLVDRVVSSD [SRP72],3.02 ± 0.098
8,FSKIAEYYRIQKQLPQK [ESC2],3.26 ± 0.088
9,FSNRFLPVASPFHSHLL [FAS1],3.19 ± 0.27
10,FSQKANKTKAVDNTVPS [YOR098C/NUP1],1.81 ± 0.1
11,FSSLAISEINFLHESSF [CSI1],2.26 ± 0.047
12,FTAEGIVPDLIINPHAI [RPB2],2.08 ± 0.081
13,FTKKPVTPNDKIPEREE [SIR4],3.27 ± 0.13
14,FTKNEEKLLKELENNEF [ITC1],2.27 ± 0.083
15,FTNPSIVKVFHGAFMDI [RRP6],1.63 ± 0.11
16,FTNRSTMMANFEEWIKM [BRN1],2.32 ± 0.1
17,FTNVLTKYSDVLGFLQL [YJL039C/NUP192],2.85 ± 0.053
18,FTNVPLNLEQVTLNKYC [YJL039C/NUP192],1.92 ± 0.077
19,FTRIFLPIYDSLMSSQN [SIR3],1.99 ± 0.074
20,FVDDMLRDYRFEDATRE [SNF5],3.19 ± 0.082
21,FVDLNEKELQNEIKQLG [SRB4],2.13 ± 0.2
22,FVEVERARVTKDLVEIK [RPN5],3.33 ± 0.066
23,FVIGVIIGTFSDSYKVS [RRP40],2.04 ± 0.12

row,Sequence,protein stability index
1,FVIHIQEKNFQTGIFVY [RPB5],1.54 ± 0.16
2,FVRQAAMIALSMILIQQ [RPN2],1.48 ± 0.19
3,FYAAVQKNYADPEKDSI [SIN4],2.01 ± 0.093
4,GAEVLIKGSKLSLGEAF [COR1],2.32 ± 0.15
5,GAHKFLDTYLPEDLNSL [SIR2],1.56 ± 0.13
6,GAINVANCQRQLTEFWT [NNF1],2.71 ± 0.21
7,GALEEITKDHKVLARQQ [FAS2],3.01 ± 0.12
8,GALIHKAGLMTGGISGD [SMC1],2.72 ± 0.06
9,GARFDDGAGGDNEVQRT [RPT1],3.47 ± 0.24
10,GATYRGKLVESEDSMNV [SMD3],3.01 ± 0.06
11,GCNNLIKNISNRVGLTL [ARP9],3.33 ± 0.069
12,GCVSYSPAALKQLASLK [YMR153W/NUP53],2.08 ± 0.12
13,GDIVRMLETAGFSMNNP [SMC3],3.04 ± 0.089
14,GDLKLQVLLDEEYKQLV [RPO21],2.73 ± 0.11
15,GDLVYARVCTAEKELEA [RRP40],1.46 ± 0.19
16,GEGSTVNASVDVDQHGN [SWI3],2.87 ± 0.29
17,GEHEKSNILLNSLTKYP [MED1],1.14 ± 0.25
18,GEIDFIKNIGKSLKNNF [YML103C/NUP188],2.17 ± 0.15
19,GEIVSINQINEAHPTKV [RPL20A],3.06 ± 0.06
20,GELDVLQIESVTKETVH [PRP8],2.55 ± 0.07
21,GELLHHPIMETIVNDSN [RPN9],2.2 ± 0.08
22,GESTVESEKLVTPEDVM [RPC82],3.15 ± 0.11
23,GETIKSNAVTQTNIWEE [SEM1],2.97 ± 0.17

row,Sequence,protein stability index
1,GFQDRSLPHFPKNSKTP [RPO31],1.56 ± 0.11
2,GFSFGSQLGGNKTVNEA [YJL041W/NSP1],3.32 ± 0.048
3,GFVRNSFFSGLSPPEFL [RPO31],3.11 ± 0.08
4,GGALDNPFEDDMDGVDF [BRN1],3.4 ± 0.039
5,GGDVVKFQKLLQNSERD [SMC4],3.06 ± 0.047
6,GGESAYFFQLQIRSADE [RPC11],2.71 ± 0.06
7,GGESMEGPKKCIQVNCL [SNM1],2.23 ± 0.1
8,GGNNNNNSTGIANDNVI [SWI1],2.94 ± 0.05
9,GGQTKPVFHKKAKTTKK [RPL42A],2.73 ± 0.064
10,GGSFGNREEFINKLVKS [RPL7A],3.18 ± 0.17
11,GGSGAATFSVSQASSDL [CSL4],3.43 ± 0.061
12,GHSLGEYAALASLADVM [FAS1],1.92 ± 0.078
13,GIFEKAKAKAVTSKVRN [YMR153W/NUP53],2.51 ± 0.15
14,GIFNLLNTLFNPVTLNE [NUT1],1.87 ± 0.075
15,GIKATNGVVIATEKKSS [PRE8],2.52 ± 0.26
16,GIVSVSDPQMKVFDTLT [RPN1],2.87 ± 0.16
17,GKGESVIFNDNVTETYS [SIR3],2.88 ± 0.074
18,GKGHLVGRLASVVAKQL [RPL16A],1.33 ± 0.099
19,GKILTIKQQQQQQQQQN [YML103C/NUP188],3.12 ± 0.048
20,GKIRGVEDDLVTVQTEL [SMC2],2.48 ± 0.077
21,GKKLTDEINTAQDKWHL [RET1],3.09 ± 0.054
22,GKLFSDIKVLKRQLIKE [YIL149C/MLP2],2.59 ± 0.078

# Same assay, conditions: ubr1∆
row,Sequence,protein stability index
1,FKKDLVIVLSNISHLLE [SWI1],1.93 ± 0.061
2,FKKLTKDIFRYMQRTVE [RPB2],1.36 ± 0.033
